Reference: a protein production outcome set (Wang et al. 2014)

Test: label from the status in PepcDB records

| Sequence | protein production |
| --- | --- |
| NIPEIENANLKPALKDSVLPDGFYSTTNHPTHVKVNDEWIEVANPKMDAVIVVYPEEKRAETKVIRKVKKGDFVLIGHNGIRVMPPEKSREAGQLFEFMNSEVSSEKPKEAIIKRIAKEMHEIREEYKKTGTGGIAIVGGPAIIHTGGGPALAKMVELGYIQAILAGNALATHDIESALYGTSLGVNIKTAKPVTGGHKHHIYAINAINDAGNIKNAVESGVLKEGIMYQCIKNNIPYVLAGSIRDDGPIPDVITDSMVAQDKMRTTVMDKKMVIMLSTLLHSVATGNLMPSYIKTVCVDIQPSTVTKLMDRGTSQAIGVVTDVGVFLVLLLKELERLELQE | not failed |
| NKSYRSTEQITNFAKALLPDGDQIQAFTRKGDLPKVMIRYGEDAALSSLRSEVEHQLKATNTVAVLTKDLAESKQVYQYLKRYTVTTLMADSDRTMPQGVIVMPIYLAKGLEFDAVVAYDVSATNYPDADSVGILYTIASRAMHHLTLLSIGDVSPLIAQLDPTLFTIEHQVRV | not failed |
| NKYNKIANELIKIIGEDNIISITHCATRLRVMVKDREIINDKKVEKVDEVKGVFFTSGQYQIILGTGIVNKVYAEVEKMGLKTLSKKEQDELVKNNE | not failed |
| NLDPQRVEQEMILLAQRIDVAEELDRLQMHVKETTNILKKGGAVGRKLDFMMQELNRESNTLASKSINADITASAVELKVLIEQMREQIQNLE | failed |
| NLNAIQNFGAMDILCTDKTGTLTCDKIVLEKYINADGSDDNSKRILRHAYFNSYFQTGLRNLMDKAILSHVRELNLEHLKDAYTKVDEIPFDFTRRRMSVVIEDRQGKRQIITKGAVEEILDVCSYAEFDREIHPLTDSLKIKAQKISEEMNRQGMRVLAVSQKSFIEKDCNFAIEDEKEMVLIGYLAFLDP | not failed |
| NLSELTPYILCSICKGYLIDATTITECLHTFCKSCIVRHFYYSNRCPKCNIVVHQTQPL | not failed |
| NNLFVYCEIEEGIVADVSLELLTKGRSLANELNCQLEAVVAGTGLKEIEKQILPYGVDKLHVFDAEGLYPYTSLPHTSILVNLFKEEQPQICLMGATVIGRDLGPRVSSALTSGLTADCTSLEIGDHEDKKEGKVYKNLLYQIRPAFGGNIVATIVNPEHRPQMATVREGVMKKEIVSPAYQGEVIRHDVKKYVADTDYVVKVIERHVEKAKNN | not failed |
| NPHMWWLQDADPENNSRQASPSQESINQLVYMGFDTVVAEAALRVFGGNVQLAAQTLAHHGGSLPPDLQF | not failed |
| NQLIRGRLVVGMVTACTVKPLFDALSAFHVAHPGIEITLTEDSSDRLVERVRAGAIDLALVGTATAPPDGLDAFPIISEGLVAAVPPGHPLAGRSRVTLAELGDHAIVCMPTGTGIRTVFDQACAAAGLRPDIALQASAPDAVADLAIRG | failed |
| NQPAYKDSSLSPEERAEDLLQQLTLEEKVALMMDNSKPVERLGIKPYNWWNEALHGVARSGLATVFPQPIGMAASFEPDAIHTIYTAVSDEARAKNAAYSAAGSYERYQGLTMWTPTVNIYRDPRWGRGIETYGEDPYLTSVMGVNVVKGLQCMDANQKYDKIHACAKHFAVHSGPEWNRHEFNAENIKPRDLHETYLVPFEALVKEAKVKEVMCAYNRLEGDPCCGSDRLLMQILRQDWGYDGIVLSDCGAIDDFYREKGHKTHPDAESASAAAVLSGTDLECGSSYKALVESAKKGLISEKDIDVSVKRLLKARFELGEMDDP | failed |
| NRFIGYIQVACCCLLLCASCVRDGMDEDCNSYVRFVYDYNLEYIDLFHKQATKMNLYVFDEKGVFVTELKEESGAFAPDYLMTLPGAMAGRRYIFVAWSGLYGESYDKVTLTPGVSTLEDLEVSVNNLKTRIGGGVVDRELHLLWHGKQTEVSPQYNNDITTVSLLKNTKKFRIIMQMLDDSSIHVDDYDFRIISPNGRYNHENGLLGDETDEKVEYTAYHTEDDPETGAIAELNTLRLMTDTENRLVITHKSSGNVILDIPLNKYLNALRLQQYADIPLQEYLDRADKHGIILFFKGMDGNGNYISVDVQINGWLIRKQEVD | not failed |
| NSFDSSNYFYGGNNICIINTKWGKHSGIGGYAEIIDTLVGNFTNISSWAKIGIRDHIHTNFLICDFVYKDNDHIMPPGISSFEDYWVKIGNDVWVGTNVTILRGVEVGDGAVIAAGSVVTKSIPPYAIVGGNPAKFIKWRFPFEVREKLLEIKWWDWDDDLIKEKKDYLQNLVGFDMDKYKIEYRKRKED | failed |
| NYNIYDHPKAAEDRKNTVLYLMHYHKRITDKQWEDAKKIDLKANLVNRTPEERQNIDTNQDSEYNSYVNFVKSELMNNKAFKDENLGNVLQSG | failed |
| PALPYAKSLAPVDLTDCSAQALETARQLGLLQRTKLIVMHVYDAAAAGMLNYAGVDKTSLDDYLVDTRTDAVRDLVRFLEPLRLDDVDYSTVVKEGAGPATDIIEAATELRPDLVVIGTHARRGAVRLLLSSVTEEVLRRLQRDILVVPVRDAGS | failed |
| PDRAWINRCRTLSEHTDKAVRAQLAAHPKATGLHVAAAVMDALTDGDQLLLGASNPVRDAALVSYPAPKIRVLSNRGVAGIDGTVSAAVGAALAYEEGRTVALLGDLTFLHDASGLLIGSGEPRPRDLTIVVANDDGGGIFELLEQGDPQYAGVFERVFGTPHGMDLAALCAAYRVEHHLVGLGELSTRLSAPEAPGDRGIRVLEVTTERSGLRELHAAVRAQL | failed |
| PECDWWALGVFAYEMFYGQTPFYADSTAETYGKIVHYKEHLSLPLVDEGVPEEARDFIQRLLCPPETRLGRGGAGDFRTHPFFFGLDWDGLRDSVPPFTPDFEGATDTCNFDLVEDGLTAMVSGGGETLSDIREGAPLGVHLPFVGYSYSCMALRDSEVPGPTPMEVEAEQLLEPHVQAPSLEPSVSPQDET | failed |
| PEQHRLRYQSLKQQLDDYYQEVTVQNYLDLTTRSHAFDQWLNNNIQLDWVKATVVKDAPDKIRAKANKEQHLNFQLIKHLEKPEDNVDLISAYFVPEKQGAKHLSDMAQDGIKVRVLTNSFKANDVPVVHAFYAKYRQELLENGVQLYEFLPTLEKEELDKYTDELVKKAKVSIKGLSRSSLHAKMMALDQKQVFIGSFNFDPRSAYLNTEIGVILNSPPLAMAVHQTMDQQLTHYAYKLVLDANHKINWYRQTS | failed |

| Sequence | protein production |
| --- | --- |
| PFIMDAPRDLNISEGRMAELKCRTPPMSSVKWLLPNGTVLSHASRHPRISVLNDGTLNFSHVLLSDTGVYTCMVTNVAGNSNASAYLNVS | not failed |
| PFKESQARGLLQDNMANSYNGGDFEDGLLNLSKEVFPTDKYLYQDGQFLDKKTINAYLNPKYTKREIDKMSEKDKKDKKANENLGLNPSHEGETNPEKIAEKSPAYLSNILEQDFYGGGDTKGKNIKGMTIGLAMNSVYYYKKEKDGPTFSKKLDDSEVKKQGKQMASEILSRLRENDDLKDIPIHFAIYKQSSEDSITPGEFITQATAEKSQTKLNEWHNINEKSALLPSSTAADYDENLNNNFKQFNDNLQSYFSNFTQAVGKVKFVDKKPQRLVVDLPIDYYGQAETIGITQYVTEQANKYFDKIDNYEIRIKDGNQPRALISKTKDDKEPQVHIYSN | not failed |
| PGGPEEQWQRAIHERGEAVCPTCNVVTRKTLVGLKKHMEVCQKLQDALKCQHCRKQFKSKAGLNYHTMAEHSAKPSDAEASEGGE | not failed |
| PGMLYEFCLKPDGTMTFPYVSSGCLELIECSPQELQDDASLTFASTYPEDIIGLQEAIANSAKTLQNFEHEWRIITSSGQLKWVKGASRPERKPGGEITWYGYLLDVSEQQAALRERKQADQQLQQQAQLLQSIWEGVD | failed |
| PIKQSFLLKRSGNSLNKEWKKKYVTLSSNGFLLYHPSINDYIHSTHGKEMDLLRTTVKVPGKRPPRAISAFGPSASINGLVKDMSTVQMGEGLEATTPMPSPSPSPSSLQPPPDQTSKHLL | failed |
| PKAPVTGYVRFLNERREQIRTRHPDLPFPEITKMLGAEWSKLQPAEKQRYLDEAEKEKQQYLKELWAYQQSEAYKVCTE | not failed |
| PKIAGIDLGTTYSSIGIYHAVTGETIILPDDLGKKSVPSVVAFLPNGTVLIGTRATEQQEHNPKRTIYDAKRFIGRNFEKNNKDFLSDQKRYPFKINLDSEGKAFFEIPLDSGTKNVYPEEIGSLIIGYLKSAAAKHLGVTLGQVVISCPAEFNEKQRNFTAKAAEIAEMEVRRVISEPTAAALAYGLHKKQGVENVVVVDLGGGTLDVSVLWLQGGVFVTQAMAGNNRLGGQDFNDRVQKHLISKIAEKFGKTIDNKEDIQQIRMEVEKGKIRLTNVPSTTISLNLKTVGKWNYELTRDEFETLNGDLLKAIELPITAALADANLDTADVDEIVLVGGSTQVPAVRKIVGRFFKKSANYGVDPELAVVTGASVQAGVIGGGWPLQVAAMELPAKRRKRHFFTEEQKENEKDRTISEL | not failed |
| PKTGPTMTKELVFSSNIGQHDLDTKSKQIQQWIEKKYHVQVTIKRRKDAEQSEEETEEIFNQILQTMPDIATFSSRPKAIRGGTASMCVFRHLSKKEEK | not failed |
| PLAGTITEADVRRYAASCCVQGVTTITDLHNDLADPTIEVYRSATSQADFGVRLVPALAAVSHTPEQAIAKLETLRGHASDKLHYGIVKLVVDGSIQGFTARLRWPGYHNGAANGLWYIAPEELPRLVEAYHRAGVQLHIHTNGDEATEVALDAIEAAQTVAPRPDHRHTLQHCQMASAAQFRRMKNLGVCANLFANHLYYWGDAHYELTMGPERAARLDATGTAQRIGVPFAIHSDAPVTPLAPLFTAWCAVNRVSSSGRVLGRDTEALTTEQALAAITIGAAYTLKMDHLVGSIETGKYADFVVLDEDPLAVPPERLKEIAVWGTVVGG | failed |
| PLLTEEALFGEDRHVLGEKGVVVRVFSDFQCPYCQRLAREVLPALKAMAREGRLRLAYRHFPLYEIHPEAVPAAVASECAAAQGAFWAYHDLLMAGSGWDYPALARRLGLDPKAFQACLEDPASRAPVEADRALAERLGLPGTPSVFVGPFRLPNPFDLERYRDYLALAEAL | failed |
| PLNRLGHKIYQHSGKWLQETAAEKLNQRDQLINPGHAQVLILGMGRIGTGAYDELRARYGKISLGIEIREEAAQQHRSEGRNVISGDATDPDFWERILDTGHVKLVLLAMPHHQGNQTALEQLQRRNYKGQIAAIAEYPDQLEGLLESGVDAAFNIYSEAGSGFARHVCKQLEPQFTSIK | not failed |
| PLPPPRALTLAAVTPRTVHLTWQPSAGATHYLVRCSPASPKGEEEEREVQVGRPEVLLDGLEPGRDYEVSVQSLRGPEGSEARGIRARTPT | not failed |
| PLQFHSVHGDNIRISRDGTLARRFESFCRAITFSARPVRINERICVKFAEISNNWNGGIRFGFTSNDPVTLEGTLPKYACPDLTNRPGFWAKALHEQYCEKDNILYYYVNGAGDVIYGINNEEKGVILTGIDTRSLLWTVIDIYGNCTGIEFLDSRIYMYQ | not failed |
| PMVLVVLDHDGNRLKKGSLEALTRARDLAQALGGKVAGVLLAEEKAPVEEARKYVEVLYTATLGPYTAEKWAAGVLKAAEASGAKAVVAPSSRQSRAYLGRVAYALRAGLLEDTLESRVEGGEVHATRYAYLNRVTQRVKAALPVVLTVKPNTTPLAEPLPGEAEAVALSVPEVPTVEVLERLQEEKKGVS | failed |
| PPKIRVVVRKRPISKKERERGDDDVVDVLAKNNTVVVNEEKVKVDLTKYLEKHAFKFDESLDENVSNEAVYQLTVGPLVRTLFRNGRASCFAYGQTGSGKTYTMSPLPIRASADIFTFMAQQQYRDISLCVSCFEIYGNKVFDLLNARKKLNILEDGKKKVVVVGLKEFGVDDVDGVKALIEESAKNRSTGSTAANADSSRSHSIMQFALKRAA | failed |
| PPLPLVYERIMLKGKGAMHSSTGLAIPASEIIDVMPPELLRFLIARVNPSRHIDFDP | failed |
